Measurements taken from paper PMC7337902.

Target: HRP2 (hepatoma-derived growth factor-related protein 2) IBD (UniProt Q7Z4V5)
Test: biotin-peptide streptavidin pull-down, GST blot
Settings: reference: unphosphorylated IBM peptide; sites S323

UniProt Q7Z4V5, sequence (Q7Z4V5 whole entry, looked up): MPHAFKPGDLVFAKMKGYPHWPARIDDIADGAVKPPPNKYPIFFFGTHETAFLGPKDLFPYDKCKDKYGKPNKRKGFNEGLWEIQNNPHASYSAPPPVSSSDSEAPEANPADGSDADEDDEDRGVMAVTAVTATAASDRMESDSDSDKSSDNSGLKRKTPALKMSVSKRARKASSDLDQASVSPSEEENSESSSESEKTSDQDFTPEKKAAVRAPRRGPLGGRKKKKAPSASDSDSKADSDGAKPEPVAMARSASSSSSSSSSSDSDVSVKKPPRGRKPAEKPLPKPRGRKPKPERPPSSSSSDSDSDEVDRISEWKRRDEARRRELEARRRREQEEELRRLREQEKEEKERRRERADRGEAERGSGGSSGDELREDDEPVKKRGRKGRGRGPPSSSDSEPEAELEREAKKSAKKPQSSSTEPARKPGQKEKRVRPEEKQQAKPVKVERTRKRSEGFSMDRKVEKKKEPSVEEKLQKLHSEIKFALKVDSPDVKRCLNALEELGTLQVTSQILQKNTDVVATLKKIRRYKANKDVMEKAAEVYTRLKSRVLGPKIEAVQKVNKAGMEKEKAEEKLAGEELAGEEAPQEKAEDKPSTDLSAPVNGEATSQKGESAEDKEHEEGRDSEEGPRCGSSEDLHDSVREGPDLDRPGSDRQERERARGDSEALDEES

## DPF3a (BAF45c) IBM peptide (from UniProt Q92784-2) pS323 IBM peptide
  binding against the reference: stronger
